Data as given in patent US20110038917A1, “THERAPEUTIC COMPOSITIONS AND METHODS FOR TREATING GRAM-NEGATIVE BACTERIAL INFECTIONS” (RQ Bioscience, Inc., priority 2007, published 2011).

Conditions: human, in vivo
Description: The patient dissolved varying amounts of grape seed powder containing 20% (w/w) of oligomeric proanthocyanidin (OPC) in 37% alcohol/water to produce solutions having OPC concentrations of 1,000 mg/ml, 2,000 mg/ml and 4,000 mg/ml. Each of the solutions were filtered the resulting filtrate then diluted 1:1 with water to produce solutions having final concentrations of 500 mg OPC/l, 1,000 mg OPC/l and 2,000 mg OPC/l. They loaded 3 ml of the 500 mg OPC/l solution into an inhaler and self-administered the solution to their lungs two to three times/day for a few days. […] They performed the same experiment with each of the higher concentration OPC solutions. […] The patient then prepared a solution of bovine apolactoferrin. The lactoferrin was manufactured by Life Extension as a solid in a capsule. The patient broke open capsules and dissolved the lactoferrin therein in 18.5% alcohol/water to final concentrations ranging from 1 g lactoferrin/l to 4.5 g lactoferrin/l. […] The patient reported a relief from all signs of their infection, including coughing, for 4 to 5 hours following administration of the lactoferrin. After that time, their condition began to return to the pre-treatment state. […] It is theorized that this may have been due to a build-up in the patient's lungs of contaminants present in the OPC/lactoferrin preparation that could not be removed by filtration prior to administration. […]

B1: lactoferrin: bovine apolactoferrin manufactured by Life Extension as a solid in a capsule, dissolved in 18.5% alcohol/water (protein, UniProt P24627 20-708, looked up)
Lactotransferrin: APRKNVRWCTISQPEWFKCRRWQWRMKKLGAPSITCVRRAFALECIRAIAEKKADAVTLDGGMVFEAGRDPYKLRPVAAEIYGTKESPQTHYYAVAVVKKGSNFQLDQLQGRKSCHTGLGRSAGWIIPMGILRPYLSWTESLEPLQGAVAKFFSASCVPCIDRQAYPNLCQLCKGEGENQCACSSREPYFGYSGAFKCLQDGAGDVAFVKETTVFENLPEKADRDQYELLCLNNSRAPVDAFKECHLAQVPSHAVVARSVDGKEDLIWKLLSKAQEKFGKNKSRSFQLFGSPPGQRDLLFKDSALGFLRIPSKVDSALYLGSRYLTTLKNLRETAEEVKARYTRVVWCAVGPEEQKKCQQWSQQSGQNVTCATASTTDDCIVLVLKGEADALNLDGGYIYTAGKCGLVPVLAENRKSSKHSSLDCVLRPTEGYLAVAVVKKANEGLTWNSLKDKKSCHTAVDRTAGWNIPMGLIVNQTGSCAFDEFFSQSCAPGADPKSRLCALCAGDDQGLDKCVPNSKEKYYGYTGAFRCLAEDVGDVAFVKNDTVWENTNGESTADWAKNLNREDFRLLCLDGTRKPVTEAQSCHLAVAPNHAVVSRSDRAAHVKQVLLHQQALFGKNGKNCPDKFCLFKSETKNLLFNDNTECLAKLGGRPTYEEYLGTEYVTAIANLKKCSTSPLLEACAFLTR
modifications: apo form
notes: bovine apolactoferrin manufactured by Life Extension as a solid in a capsule, dissolved in 18.5% alcohol/water
With B1 the “side effects on inhalation” value was “no immediate deleterious side effects”.
